Measured values as given in patent publication US20260193346.

Tests used:
[1] = tested on: T1, human LTBP4 TP2E fragment (amino acids 357-586)
T1 sequence: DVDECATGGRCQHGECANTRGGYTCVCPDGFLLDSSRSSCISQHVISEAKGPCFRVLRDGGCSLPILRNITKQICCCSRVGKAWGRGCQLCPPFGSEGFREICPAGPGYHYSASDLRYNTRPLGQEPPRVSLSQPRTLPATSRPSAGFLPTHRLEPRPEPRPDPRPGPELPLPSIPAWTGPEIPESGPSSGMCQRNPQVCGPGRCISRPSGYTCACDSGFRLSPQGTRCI

[2] = target: murine LTBP4 TP2E fragment (UniProt Q8K4G1)
[3] = target: T2, Murine LTBP4 with the 12-amino-acid insertion (expressed fragment, FIG. 5) (UniProt Q8K4G1)
T2 sequence: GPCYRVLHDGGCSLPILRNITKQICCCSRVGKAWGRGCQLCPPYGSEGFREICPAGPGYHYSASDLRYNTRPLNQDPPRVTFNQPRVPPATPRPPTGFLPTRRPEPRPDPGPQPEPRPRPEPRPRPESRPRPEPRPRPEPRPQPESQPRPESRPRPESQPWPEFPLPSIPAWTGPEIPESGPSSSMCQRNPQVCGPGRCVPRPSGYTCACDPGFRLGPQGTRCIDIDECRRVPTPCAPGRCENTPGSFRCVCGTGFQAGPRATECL

[4] = tested on: human latent TGFβ binding protein 4 (LTBP4), full-length
Chain of human latent TGFβ binding protein 4 (LTBP4), full-length (chain, as listed by the source): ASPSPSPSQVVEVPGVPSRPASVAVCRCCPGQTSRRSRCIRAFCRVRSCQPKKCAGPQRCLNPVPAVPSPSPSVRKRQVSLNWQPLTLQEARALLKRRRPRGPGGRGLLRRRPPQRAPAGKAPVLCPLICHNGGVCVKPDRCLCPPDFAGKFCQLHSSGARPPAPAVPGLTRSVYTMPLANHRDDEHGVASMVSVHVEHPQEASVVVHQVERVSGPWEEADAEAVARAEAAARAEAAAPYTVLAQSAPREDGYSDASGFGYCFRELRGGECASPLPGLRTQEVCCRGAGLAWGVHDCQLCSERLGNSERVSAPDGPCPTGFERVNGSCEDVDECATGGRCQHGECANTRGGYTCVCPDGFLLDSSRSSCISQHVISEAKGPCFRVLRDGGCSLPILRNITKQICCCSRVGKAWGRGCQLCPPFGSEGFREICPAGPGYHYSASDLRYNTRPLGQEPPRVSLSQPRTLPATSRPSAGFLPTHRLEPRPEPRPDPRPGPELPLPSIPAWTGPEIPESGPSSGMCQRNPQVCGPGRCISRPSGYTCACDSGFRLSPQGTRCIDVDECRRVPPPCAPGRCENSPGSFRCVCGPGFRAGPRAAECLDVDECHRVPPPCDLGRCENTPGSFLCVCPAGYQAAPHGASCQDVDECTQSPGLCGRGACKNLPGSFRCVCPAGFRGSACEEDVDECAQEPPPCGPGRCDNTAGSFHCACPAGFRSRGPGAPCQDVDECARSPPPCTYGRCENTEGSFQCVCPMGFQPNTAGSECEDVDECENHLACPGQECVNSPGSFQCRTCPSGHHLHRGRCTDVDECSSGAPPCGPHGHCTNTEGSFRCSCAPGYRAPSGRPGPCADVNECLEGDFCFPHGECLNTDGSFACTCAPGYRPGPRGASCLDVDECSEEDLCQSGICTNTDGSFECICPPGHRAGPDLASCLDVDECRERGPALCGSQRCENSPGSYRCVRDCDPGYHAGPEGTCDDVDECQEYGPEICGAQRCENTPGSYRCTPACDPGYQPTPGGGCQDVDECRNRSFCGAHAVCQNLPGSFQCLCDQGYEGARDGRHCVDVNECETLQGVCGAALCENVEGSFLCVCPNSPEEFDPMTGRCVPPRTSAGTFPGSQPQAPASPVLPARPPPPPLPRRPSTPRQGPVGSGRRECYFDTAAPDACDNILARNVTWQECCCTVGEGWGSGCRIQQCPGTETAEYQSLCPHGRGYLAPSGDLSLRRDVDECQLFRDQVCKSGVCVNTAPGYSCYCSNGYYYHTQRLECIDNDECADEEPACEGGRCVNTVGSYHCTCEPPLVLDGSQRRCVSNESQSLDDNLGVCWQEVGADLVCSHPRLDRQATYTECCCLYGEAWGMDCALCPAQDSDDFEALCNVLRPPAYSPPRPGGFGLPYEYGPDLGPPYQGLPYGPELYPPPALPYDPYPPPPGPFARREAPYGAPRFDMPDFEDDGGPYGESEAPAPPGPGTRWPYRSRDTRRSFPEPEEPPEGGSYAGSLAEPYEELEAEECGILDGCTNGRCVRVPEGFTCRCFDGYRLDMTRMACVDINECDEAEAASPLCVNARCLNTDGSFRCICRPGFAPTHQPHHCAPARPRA

[5] = target: murine LTBP4 deleted for the 12 amino acids (expressed fragment, FIG. 5) (UniProt Q8K4G1)
[6] = tested on: T3, human LTBP4 proline-rich region fragment (FIG. 5)
T3 sequence: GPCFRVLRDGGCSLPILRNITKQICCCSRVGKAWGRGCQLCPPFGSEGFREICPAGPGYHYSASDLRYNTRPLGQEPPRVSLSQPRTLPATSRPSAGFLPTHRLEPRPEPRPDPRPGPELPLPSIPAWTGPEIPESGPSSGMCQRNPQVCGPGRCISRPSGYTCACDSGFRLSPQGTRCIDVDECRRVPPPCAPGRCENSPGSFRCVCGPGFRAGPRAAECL

Chain of plasmin (P00747 20-580): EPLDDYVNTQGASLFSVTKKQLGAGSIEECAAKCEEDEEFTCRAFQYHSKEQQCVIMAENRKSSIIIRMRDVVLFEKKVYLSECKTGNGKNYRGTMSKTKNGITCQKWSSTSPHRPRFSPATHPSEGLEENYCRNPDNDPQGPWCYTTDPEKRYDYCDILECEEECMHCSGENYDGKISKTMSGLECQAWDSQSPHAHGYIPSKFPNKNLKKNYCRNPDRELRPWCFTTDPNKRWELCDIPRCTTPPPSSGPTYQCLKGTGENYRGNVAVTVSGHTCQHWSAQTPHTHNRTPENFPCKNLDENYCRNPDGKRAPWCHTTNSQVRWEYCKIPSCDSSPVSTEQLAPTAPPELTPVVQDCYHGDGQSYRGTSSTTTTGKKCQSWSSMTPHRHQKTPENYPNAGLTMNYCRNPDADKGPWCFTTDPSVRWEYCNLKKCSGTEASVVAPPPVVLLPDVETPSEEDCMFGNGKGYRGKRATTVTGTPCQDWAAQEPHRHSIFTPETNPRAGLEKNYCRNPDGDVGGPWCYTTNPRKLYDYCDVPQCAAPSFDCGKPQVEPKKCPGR
Chain of plasmin (P00747 581-810): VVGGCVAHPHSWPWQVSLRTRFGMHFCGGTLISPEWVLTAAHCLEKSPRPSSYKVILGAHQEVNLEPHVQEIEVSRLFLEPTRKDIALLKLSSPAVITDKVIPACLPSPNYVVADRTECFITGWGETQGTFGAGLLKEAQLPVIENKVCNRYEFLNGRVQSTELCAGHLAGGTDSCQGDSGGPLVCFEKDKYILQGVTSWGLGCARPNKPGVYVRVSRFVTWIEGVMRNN

| Substance | proteolytic digestion of 35S-labeled fragment (dose-response and time course) [1] | proteolytic digestion of 35S-labeled fragment (dose-response and time course) [2] | proteolysis of expressed labeled fragment by plasmin [3] | plasmin proteolysis of full-length LTBP4 [4] | proteolysis of expressed labeled fragment by plasmin [5] | proteolysis of expressed labeled fragment by plasmin [6] |
| --- | --- | --- | --- | --- | --- | --- |
| elastase | the human TP2E fragment is more readily cleaved than the mouse LTBP4 sequence | the human TP2E fragment is more readily cleaved than the mouse LTBP4 sequence |  |  |  |  |
| plasmin | the human TP2E fragment is more readily cleaved than the mouse LTBP4 sequence | the human TP2E fragment is more readily cleaved than the mouse LTBP4 sequence | Murine LTBP4 with the 12-amino-acid insertion was largely resistant to proteolysis | Full-length LTBP4 protein, produced from cultured cells, is also susceptible to plasmin proteolysis | the murine LTBP4 deleted for the 12 amino acids was readily degraded | The human LTBP4 was most readily degraded |
